Test results reported in the supplement of paper PMC11246515.
± gives the standard deviation of the averaged measurements.

Experiment: total protein half-life in vivo (active degradation + dilution); higher = more stable protein
[1] = E. coli NCM3722 delta-hslV, growth: N-lim chemostat, doubling time 6 h
[2] = wild type E. coli NCM3722, growth: N-lim chemostat, doubling time 6 h
[3] = wild type E. coli NCM3722, growth: N-lim chemostat, doubling time 12 h
[4] = E. coli NCM3722 delta-clpP delta-lon delta-hslV, growth: N-lim chemostat, doubling time 6 h
[5] = E. coli NCM3722 delta-clpP, growth: N-lim chemostat, doubling time 6 h
[6] = E. coli NCM3722 delta-lon, growth: N-lim chemostat, doubling time 6 h
[7] = E. coli NCM3722 delta-smpB, growth: N-lim chemostat, doubling time 6 h
[8] = wild type E. coli NCM3722, growth: C-lim chemostat, doubling time 3 h
[9] = wild type E. coli NCM3722, growth: C-lim chemostat, doubling time 6 h
[10] = wild type E. coli NCM3722, growth: C-lim chemostat, doubling time 12 h
[11] = wild type E. coli NCM3722, growth: P-lim chemostat, doubling time 12 h
[12] = wild type E. coli NCM3722, growth: P-lim chemostat, doubling time 6 h

Sequence	total protein half-life in vivo [1] [h]	total protein half-life in vivo [2] [h]	total protein half-life in vivo [3] [h]	total protein half-life in vivo [4] [h]	total protein half-life in vivo [5] [h]	total protein half-life in vivo [6] [h]	total protein half-life in vivo [7] [h]	total protein half-life in vivo [8] [h]	total protein half-life in vivo [9] [h]	total protein half-life in vivo [10] [h]	total protein half-life in vivo [11] [h]	total protein half-life in vivo [12] [h]
MSHRRSTVKGSLSFANPTVRAWLFQILAVVAVVGIVGWLFHNTVTNLNNRGITSGFAFLDRGAGFGIVQHLIDYQQGDTYGRVFIVGLLNTLLVSALCIVFASVLGFFIGLARLSDNWLLRKLSTIYIEIFRNIPPLLQIFFWYFAVLRNLPGPRQAVSAFDLAFLSNRGLYIPSPQLGDGFIAFILAVVMAIVLSVGLFRFNKTYQIKTGQLRRTWPIAAVLIIGLPLLAQWLFGAALHWDVPALRGFNFRGGMVLIPELAALTLALSVYTSAFIAEIIRAGIQAVPYGQHEAARSLGLPNPVTLRQVIIPQALRVIIPPLTSQYLNIVKNSSLAAAIGYPDMVSLFAGTVLNQTGQAIETIAMTMSVYLIISLTISLLMNIYNRRIAIVER	3.79	4.44 ± 0.14	6.58									
MSHWATFKQTATNLWVTLRHDILALAVFLNGLLIFKTIYGMSVNLLDIFHIKAFSELDLSLLANAPLFMLGVFLVLNSIGLLFRAKLAWAISIILLLIALIYTLHFYPWLKFSIGFCIFTLVFLLILRKDFSHSSAAAGTIFAFISFTTLLFYSTYGALYLSEGFNPRIESLMTAFYFSIETMSTVGYGDIVPVSESARLFTISVIISGITVFATSMTSIFGPLIRGGFNKLVKGNNHTMHRKDHFIVCGHSILAINTILQLNQRGQNVTVISNLPEDDIKQLEQRLGDNADVIPGDSNDSSVLKKAGIDRCRAILALSDNDADNAFVVLSAKDMSSDVKTVLAVSDSKNLNKIKMVHPDIILSPQLFGSEILARVLNGEEINNDMLVSMLLNSGHGIFSDNDELETKADSKESAQK		4.54 ± 0.47	9.01 ± 0.45	5.54 ± 0.5	5.47	5.25 ± 0.22	4.7 ± 0.18	2.43 ± 0.039	4.78 ± 0.82	7.86	9.87 ± 0.24	
MSHYHEQFLKQNPLAVLGVLRDLHKAAIPLRLSWNGGQLISKLLAITPDKLVLDFGSQAEDNIAVLKAQHITITAETQGAKVEFTVEQLQQSEYLQLPAFITVPPPTLWFVQRRRYFRISAPLHPPYFCQTKLADNSTLRFRLYDLSLGGMGALLETAKPAELQEGMRFAQIEVNMGQWGVFHFDAQLISISERKVIDGKNETITTPRLSFRFLNVSPTVERQLQRIIFSLEREAREKADKVRD				5.94 ± 0.77			> 8	1.21 ± 0.24	1.87 ± 0.3	2.88 ± 0.52		
MSIAVTTTDPTNTGVSTTSSSSLTGSNAADLQSSFLTLLVAQLKNQDPTNPMENNELTSQLAQISTVSGIEKLNTTLGSISGQIDNSQSLQASNLIGHGVMIPGTTVLAGTGSEEGAVTTTTPFGVELQQAADKVTATITDKNGAVVRTIDIGELTAGVHSFTWDGTLTDGSTAPNGSYNVAISASNGGTQLVAQPLQFALVQGVIRGNSGNTLDLGTYGTTTLDEVRQII				3.99 ± 0.28				0.36 ± 0.076	1.65	0.363		
MSIDFTPGIINTYHGDIYNCTTNTDNAKTPDTPKWPCDNWEEQQPINSTFSGEGYISDQYDLAQHQLQQINACHTNTTYTNADYSKVVAQLVSLITNIETISSTQLTQQTQSILNQINNIRYEKNKSAECRIIVIANPKPDKAIITKISVEEGIPITFSVQTMFSDTNFIAEQRADLPTNIKDIQSLYQKMTKLYIEHSENKNRMKVFAGTNFIDFNMTGQNLSGFVLTLSRFYFEDLLNINFTDANLGKVRISGEILLG			8.68		5.86						14.6	
MSIIKEFREFAMRGNVVDLAVGVIIGAAFGKIVSSLVADIIMPPLGLLIGGIDFKQFAVTLRDAQGDIPAVVMHYGVFIQNVFDFLIVAFAIFMAIKLINKLNRKKEEPAAAPAPTKEEVLLTEIRDLLKEQNNRS [P0A742]	6.46 ± 0.16	6.41 ± 0.12	11.5 ± 2.5	5.9 ± 0.17	5.99 ± 0.24	5.9 ± 0.71	6.222 ± 0.036	3.17 ± 0.14	6.12 ± 0.27	12.4 ± 1.9	13.3 ± 1.1	5.8 ± 0.23
MSIKEQTLMTPYLQFDRNQWAALRDSVPMTLSEDEIARLKGINEDLSLEEVAEIYLPLSRLLNFYISSNLRRQAVLEQFLGTNGQRIPYIISIAGSVAVGKSTTARVLQALLSRWPEHRRVELITTDGFLHPNQVLKERGLMKKKGFPESYDMHRLVKFVSDLKSGVPNVTAPVYSHLIYDVIPDGDKTVVQPDILILEGLNVLQSGMDYPHDPHHVFVSDFVDFSIYVDAPEDLLQTWYINRFLKFREGAFTDPDSYFHNYAKLTKEEAIKTAMTLWKEINWLNLKQNILPTRERASLILTKSANHAVEEVRLRK [P0A6I3]	4.053 ± 0.029	4.41 ± 0.7	7.123 ± 0.068	4.81 ± 0.35	5.07 ± 0.72	4.54 ± 0.22	4.28 ± 0.39	3.07 ± 0.17	5.71 ± 0.51	8.55 ± 0.56	12.5 ± 0.64	5.6077 ± 0.0014
MSIKNLPADYLLAAQQGDIDKVKTCLALGVDINTCDRQGKTAITLASLYQQYACVQALIDAGADINKQDHTCLNPFLISCLNDDLTLLRIILPAKPDLNCVTRFGGVGLTPACEKGHLSIVKELLAHTEINVNQTNHVGWTPLLEAIVLNDGGIKQQAIVQLLLEHGASPHLTDKYGKTPLELARERGFEEIAQLLIAAGA				5.2								
MSIKQMPGRVLISLLLSVTGLLSGCASHNENASLLAKKQAQNISQNLPIKSAGYTLVLAQSSGTTVKMTIISEAGTQTTQTPDAFLTSYQRQMCADPTVKLMITEGINYSITINDTRTGNQYQRKLDRTTCGIVKA		> 8									7.3 ± 0.4	3.91 ± 0.68
MSILVTRPSPAGEELVSRLRTLGQVAWHFPLIEFSPGQQLPQLADQLAALGESDLLFALSQHAVAFAQSQLHQQDRKWPRLPDYFAIGRTTALALHTVSGQKILYPQDREISEVLLQLPELQNIAGKRALILRGNGGRELIGDTLTARGAEVTFCECYQRCAIHYDGAEEAMRWQAREVTMVVVTSGEMLQQLWSLIPQWYREHWLLHCRLLVVSERLAKLARELGWQDIKVADNADNDALLRALQ	4.13 ± 0.24	3.83 ± 0.21	6.5 ± 0.57	5.34 ± 0.71	4.14 ± 0.96	4.69 ± 0.62	3.57 ± 0.23	2.351 ± 0.014	4.45 ± 0.14	9.45 ± 3.5	9.38 ± 0.13	5.08 ± 0.62
